Assay results as given in US20190233906A1, “MUTANT STRAINS OF STAPHYLOCOCCUS AUREUS WITH MULTIPLE INACTIVATED TCS SYSTEMS” (priority 2015, published 2019).

Legend:
[1] = tested on: ArlR D52A (non-phosphorylatable ArlR allele)
[2] = tested on: ArlR response regulator of the arlRS two-component system of S. aureus MW2
arlR-dependent protein A = assay: Protein A expression by Western blotting on stimulation of GraS; type: cell-based, Staphylococcus aureus; conditions: 50 μg of colistin
Experimental: Overnight cultures of the strains were diluted in TSB-gluc to an OD650nm=0.1 and 50 μl of the diluted cultures were mixed with 1950 μl of chemically defined medium HHWm (Hussain-Hastings-White modified medium) (Toledo-Arana et al., 2005) to inoculate sterile 24-well polystyrene microtitre plates (Costar). Plates were incubated at 37° C. for 24 hours, trying to mimic biofilm forming conditions. […] of bacterial cultures were centrifuged and pellets were resuspended in 60 μl PBS. Then, 2 μl of Lysostaphin 1 mg/ml (Sigma) and 3 μl of DNase I 1 mg/ml (Sigma) were added. After 2 h of incubation at 37° C. cell lysates were centrifuged and supernatants were collected. Protein concentration was determined with the Bio-Rad protein assay (Bio-Rad). Samples were adjusted to 3-5 μg of total protein and one volume of Laemmli buffer was added. Total protein extracts were denatured by boiling at 100° C. for 5 min. Proteins were separated on 10% SDS-polyacrylamide gels and stained with 0.25% Coomassie brilliant blue R250 (Sigma) as loading controls. For Western blotting, proteins were transferred onto Hybond-ECL nitrocellulose membranes (Amersham Biosciences) by semi-dry electroblotting. […] Protein A was detected with the SuperSignal West Pico Chemiluminescent Substrate (Thermo Scientific). • Construction of the Bap-Snap-ClfA Quimeric Protein and Expression in S. aureus ΔXVI

Substance | Protein A expression by Western blotting in ΔXV strain [1] | Protein A expression by Western blotting with 50 µg/ml colistin [1] | Protein A expression by Western blotting in ΔXV strain complemented with arlR plus one HK [2] | Expression of protein A (arlR-dependent protein A; arlRS graSR double mutant) | Expression of protein A (arlR-dependent protein A; wild type and single arlRS mutant)
GraS histidine kinase of the graXRS two-component system of S. aureus MW2 | substitution of ArlR wild type by the non-phosphorylatable ArlRD52A allele suppresses the cross-talk | activation of protein A expression was absent when the ArlR phosphate accepting aspartate was mutated | In addition to ArlS itself, GraS is able to restore protein A expression in ΔXV strain |  | 
colistin |  |  |  | but not in arlRS graSR double mutant | activation of the expression of protein A was observed
